The text below walks through data of PMC4417174.

This data set deals with PU.1ΔN167 (ETS domain) (murine). Kind of data set: DMS footprinting. Conditions: saturating protein; Footprinting: 10 mM Tris-HCl pH 7.4, 150 mM NaCl, 0.1 mM EDTA, 0.5 g/l BSA, 0.1 g/l salmon sperm DNA; EMSA: 12% PAGE, 1x TBE, 0.1-10 uM protein; DLS: PBS, 25 C. On the technique in general: Mobility shift assays separate free from complexed probe on a gel.

For the substance “PU.1 high-affinity site, 206-bp footprinting fragment”, the binding signal (% protection of core guanines vs unbound) is 90.
